According to the nanobody polyreactivity screen of Harvey et al. (2022):

Experiment: yeast display, Sf9 membrane polyspecificity reagent, FACS + sequencing; frameworks hold sequencing errors
In short: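 A nanobody's polyreactivity label depends on the gate it was sorted from. Yeast display cells were stained with 10% biotinylated, detergent-solubilized Sf9 membrane reagent for 1 hour at 4 °C, enriched on streptavidin microbeads and sorted by FACS. The low and high (top ~1%) gates were set on anti-HA fluorescence for expression and streptavidin fluorescence for reagent binding.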

Sequence	polyreactivity (PSR sort gate)
QVQLVESGGGLVQAGGSLRLSCAASGFIFTGNVMGWYRQAPGKERELVAAITSSGGSTYYADSVKGRFTISRDNAKNTVYLQMNSLKPEDTAVYYCATRYGGRYYWGQGTQVTVSS	high polyreactivity
QVQLVESGGGLVQAGGSLRLSCAASGRIFRFYDMGWYRQAPVKESELVASISSTGGRTYYADSVKGRFTISRDNAKNTVYVQMNSLKPEDTAVYYCNATRGQYVGRYYYWGQGTQVTVSW	high polyreactivity
QVQLVESGGGLVQAGGSLRLSCAASGSIFAWYAMGWYRRAPGKESELVAAITWSGGSTYYADSVKGRFTISRDNAKNTVYLQMNSMKQEDTAVYYCAVEWYYRNNAIISGYYYWGKGTQVTVSS	high polyreactivity
QVQLVESGGGLVQAGGSLRLSCAASGFIFYTYAMGWYRQAPGKERELVAAISWRGGRTYYADSVKGRFTISRDNAKNTVYLQMNSLKPEDTAVYYCNAVTRSGEYDYWGQGTQVTVSS	high polyreactivity
QVQLVESGGGLVQAGGSLRLSCAASGSIFTFNAMGWYRQAPGKERELVAAISTGGNTYYADSVKGRFTISRDNAKNTVYLQINSLKPEDTAVFYCAAVRRTDGDGKYYYWGQGTQVTVSS	high polyreactivity
QVQLVESGGGLVQAGGSLRLSCAASGITFGGYAMGWYRKARGKERELVAAISWRGGRTYYADSVKGRFTISRDNAKNTVYIQMNSLKPDDTAVYYCAVGGTVYSTESDYWGQGTQVTVSS	high polyreactivity
QVQLVESGGGLVQAGGSLRLSCAASGSTFYYNAMGWYRQAPGKETELVADISWRGGITYYADSVKGRFTISRDNAKNTVYLQMNSLKPEDTAVYYCNADAESFDDGYWGQGTQVTVSS	low polyreactivity
QVQLVESGGGLVQAGGSLRLSCAASGRIYDRYDMVWYRQAPVKERELVAAISSGGSTYYADSVKGRFTISRDNAKNTVYLQMNSLKPEDTAVNNCAADRRSKYDYWGQGTQVTVSA	low polyreactivity
QVQLVESGGGLVQAGGSLRLSCAASGSTFVQNAMGWYRQAPGKERELVAAISRTGGSTYYADSVKGRITFSRDNAKNTVYLQLNTLKPEDTAVYFCAKRPPHYSWPKIIEFGSWGQGTQVTVSS	high polyreactivity
QVQLVESGGGLVQAGGSLRLSCAASGRILIRKAMGRSRQAPGKERELVAAINRGGGSTYYADSVKGRFTISRDNAKNTVYLQMNSLKPEDTAVYYCAADRKAGYSRVDGDYWGQGTQVTVSS	low polyreactivity
QVQLVESGGGLVQAGGSLRLSCAASGRTFYTNTMGWYRPAPGKERELVAAISYSGSSTYYADSVKGRFTISRDNAKNTVYLQMNSLKPEDTAVYYCNAVRYYRYYYWGQGTQVTVSS	low polyreactivity
QVQLLESGGGLVQAGGSLRLSCAASRSTFPGYAMGWYRQAPGKETELVAAITWSGVTTYYADSVKGRFTISRDNAKYTVYLQMNSLKPEDTAVYYCATGTLYSDGAIYGYWGQGTQVTVSS	low polyreactivity
QVQLVESGGGLVQAGGSLRLSCAASGFIFSRYSMGWYRQAPGKERELVAGITSRGGITYYADSVKGRFTISRDNAKNTVYLQMNSLIPEDTAVYYCNAGKSLSKSFDYWGQGTQVTVSS	high polyreactivity
QVQLVESGGGLVQAGGSLRLSCAASGSTFDYYAMGWYRQAPGKERELVAAISWSGGSTYYADSVKGRFTISRDNEKNTVYLQMNSLKPEDTAVYYCAALYSYISGGYIYDYWGQGTQVTVSS	low polyreactivity
QVQLVESGGGLVQAGGSLRLSCAASGRTFVYYAMGWYRQAPGKERELVATITRSGGSTYYADSVKGRFTISRDNAKNTVYLQMNSLKPEDTAVYYCAVLYWRPGYDYWGQGTQVTVSS	high polyreactivity
QVQLVESGGGLVQAGGSLRLSCAASGSTFAPNTMGWYRQAPGKERELVARITSSDGSTTYADSVKGRFTISRDNAKNTVYLQMNSLKPEDTAVYYCAADYGRRWGYDYWGQGTQVTVSS	low polyreactivity
QVQLVESGGGIVQAGGSLRLSCAASGRTSVINAMGWYRQAPGKERELVASISRGGSTNYADSVKGRFTISRDNAKNTVYLQMNSLKPEDTAVYYCNADEQNDSFIWSYTIIYDYWGQGTQVTVSS	low polyreactivity
QVQLVESGGGIVQAGGSLRLSCAASGITSYFNAMGWYRQAPGKERELVAITWNGGSTYYADSVKGRFTITRDNAKNTVYLQMNSLKPEDTAVYYCAARYRRYNRKYDYWGQGTQVTVSS	high polyreactivity
QVQRVESGGGLVQAGGSLRLSCAASGRIFVRNVMGWYRQAPGKEREFVAAITTRGGSTYYADSVKGRFTISRDNAKNTVYLQMNSLKPEDTAVYYCAARYTLRLYWGQGTQVTVSS	high polyreactivity
QVQLVDSGGGLVQAGGSLRLSCAASGSILESNVMGWYRQAPGKERELVASISSSGDSTYADSVKGRFTISRDNAKNTVYLQMNILKPEYTAVYYCAADRWYWTYALYYWGQGTQVTVSS	low polyreactivity
QVQLVESGGGLVQAGGSLRLSCAASGFIFNHYAMGWYRQAPGKEREFVAAISWSGGSTYYADSVKGRFTISRDNAKNTVYLKMNSLKPEDTAVYYCAASYNGLWHGDYNYWGQGTQVTVSS	low polyreactivity
QVHLVESGGGLLQAGGSLRLSCAASGSIFAYNAMGWYREAPRKERELVASITNGGSTYYADSVKGRFTISRYNAKNSVYLQMKSLKPEDTAVYYCNTDFDGYSVGYDGYWGQGTQVTVSA	low polyreactivity

Sequence	polyreactivity (PSR sort gate)
QVQLVESGGGLVQAGGSLRLSCAASGRTLGGYTMGWYRQAPGKERELVAAITTGGSTNYADSVKGRFTISRDNAKNTVYLQMNSLKPEDTAVYYCATDLVFDKRYWYDYWGQGTQVTVSS	low polyreactivity
QVQLVESGGGLVQAGGSLRLSCAASGSIFYYNGMGWYRHAPGKERELVASISRGGGTNYADSVKGRFTISRDNAKNTVYLQMNSLKPEDTAVYYCNARYPRSSPFGYWGLGTQVTVSS	high polyreactivity
QVQLVESGGGLVQAGGSLRLSCAASGSTFVYYAMGWYRQAPGKEREFVAAISTNGGSTYYADSVKGRFTISRDNAKNTVYLQMNSLKPEDTAVYYCAARWYWGQGTQVTVSS	high polyreactivity
QVQLVESGGGLVQAGGSLRLSCAASGSIYRYAMGWYRQAPGKERELVAAINFNGGRTYYADSVKGRFTISRDNAKNTVYIQMNSLKPEDTAVYYCAAVRSSNQGGFDYWGQGTQVTVSS	high polyreactivity
QVQLVESGGGLVQAGGSLRLSCAASGSTFYRNAMGWYIQAPGKEREFVAAISYSGGGTYYADSVKGRFTISRDNAKNTVYLQMNSLKPEETAVYYCAADVSGWEYDYWGQVTQVTVSS	low polyreactivity
QVQLVESGGGLVQAGGSLRLSCAASGGTFESYTMGWYRQAPGKERELVATISTSGGRTYYADSVKGRFTISRDNAKNTVYLQMHSLKPEDTAVYYCNKVSDAYGEYVTLHLDYWGQGTLVTVSS	low polyreactivity
QVQLEESGGGLVQAGGSLRLSCAASGFIFSRYDMGWYRQAPGKERELVAAITSGGSTYYADSVKGRFTISRDNAKNTVYLQMNSLKPEDTAVYYCNAYVRSDYDYWGQGTQVTVSS	high polyreactivity
QVQLVESGGGLVRARGSLRLSWAASGNTFSSNAMGWYRQAPGKERELVAGITKSGGRTYYADSVKGSFTISRDNAKNTVYLQMNSLKPEDTAVYYCNRRACPYSIPYYYWGQGTQVTVSS	high polyreactivity
QVQLVESGGGLVQAGGSLRLSCAASGSTFWVNAMGWYRQAPGKVRELVAAIRRGGSTKYADSVKGRFTISRDNAKNTFYLQINSLKPEDTAVSYCAADAPGHEYYYWGQGTQVTVSS	high polyreactivity
QVQLVESVGGLVQAGGSLRLSCPASGFIFSGHTMGWYRQAPGKERELVAAITSGGGRTYYADSVKGRFTISRDNAKNTVYLQMNSLKPEDTAVYYCNTAFVYEYDYWGQGTQVTVSS	high polyreactivity
QVQLVESGGGLVQAGGSLRLSCAASGITLNRNAMGWYRQAPGKERELVARISRRGGTTYYADSVKGRFSISRDNAKNTVYLQMNSLKPEDTAVYYCNAGPYGGNPFDYWGQGTQVTVSS	high polyreactivity
QVQLVESGGGLVQAGGSRRLSCAASGNTFYGYAMGWYRQAPGKERELVASITMSGDSTYYADSVKGRFTISRDNAKNTVYLQMNSLKPEYTSVYYCAGVYTYPLGYYHYTYDYWGQGTQVTVSS	low polyreactivity
QVQLVESGGGLVQAGGSLRLSCAASGFIFASYAMGWYRQAPGKERELVAAISYRGGTTYYADSVKGRFTISRDNAKNTVYLQMNSLKPEDTALYYCAADSPENRYNYWGQGTQVTVSS	high polyreactivity
QVQLVESGGGLVQAGGSLRLSCAASGRTFQTYAMGWYRQAPGKERELVAAISKSGGGTYYADSVKGRFTISRDNAKNTVYLQMNSLKPEDTAVYYCATAGYHYRAWGGRYDYWGQGTQVTVSS	high polyreactivity
QVQLVESGGGLVQAGRSLRISCAASGSIFVNNAMGWYRQAPGKERELVAAISLSGGSTYYADSVTGRFTISRDTAKNTVYLQMTSLKPEDTAVYYCATRRSHYGKYDYWGQGTQVTVSS	high polyreactivity
QDQLVESGGGLVQAGGSLRLSCAASGRTFWVYAKGWYRQAPGKERELVAGISWDDGSTYYADSVKGRFTISRDNAKNTVYLQMNSLKPEDTAVYYCAADAYFIFYISYEYWGQGTQVTVSS	low polyreactivity
QVQLVESGGGLVQAGGSLRLSCAASGRIFVGYALGWYRQAPGKERELVAAINRSGSSTYYADSVKGRFTISRDNAKNTVYLQMNSLKPEDTAVYYCNARSGNRYGPRYDYWGQGTQVTVSS	high polyreactivity
QVQLVESGGGLVQAGGSLRLSCAASGSTFAINAMGWYRQAPGKERELVAAISSSGSTNYADSVKGRFTISRDNAKNTVYLQMNSLKPEVTAVYYCAADRVWGTPQAYVPSQFDYWGQGTQVTVSS	low polyreactivity
QVQLVESGGGLVQAGGSLRLICAASGRIFASYTMGWYRQAPGKERELVAGISRRGGSTYYADSVKGRFTISRDNAKNTVYLQMNSLKPEDTAVYYCAAVSSVFSVRYDYWGQGTQVTVSS	high polyreactivity
QFQLVESGGGLVQAGGSLRLSCAASGLTFVAYAMGWYRQAPGKEMELVAAITRRGGSTYYADSVKGRFTISRDNEKNPVSLQMNSLKPEDTAVYYCAAEGWYSRNPGFDYWGQGTQVTVSS	high polyreactivity
QVQLVESGGGLVQAGGSLRLSCAASGFIFEPYAMGWYRQAPGKERELVAAISSGGSTYADSVKGRFTISRDNAKNTVYLQMNSLKPEDTAVYYCAVRGYWGQGTQVTVSS	low polyreactivity
